Experimental data published in article PMC3927496.

Columns and labels:
thrombin = thrombin (UniProt P00734;P00734 328-363;364-622); experiment: SPR
VEGF165 = VEGF165 (Homo sapiens, UniProt P15692-4 27-191); experiment: SPR

Binder	Kd (thrombin)	Kd (VEGF165)
GGTTGGTGTGGTTGGTTTTTAGTCCGTGGTAGGGCAGGTTGGGGTGACT (structured_DNA) [Linker 5 (15-mer-T5-29-mer)]	0.06 nM	
Linker 10 (15-mer-T10-29-mer) (structured_DNA) DNA: GGTTGGTGTGGTTGGTTTTTTTTTTAGTCCGTGGTAGGGCAGGTTGGGGTGACT	0.74 nM	
GGTTGGTGTGGTTGGAGTCCGTGGTAGGGCAGGTTGGGGTGACT (structured_DNA) [Linker 0 (15-mer-29-mer)]	0.14 nM	
VEa5 (ssDNA) DNA: ATACCAGTCTATTCAATTGGGCCCGTCCGTATGGTGGGTGTGCTGGCCAGATAGTATGTGCAATCA		116 nM
